Results reported in paper PMC10497406, “PCNA recruits cohesin loader Scc2 to ensure sister chromatid cohesion” (Nature Structural & Molecular Biology, 2023).

T1: GST–Scc2^C1100 (Scc2 amino acids 394–1493 fused to GST) (S. cerevisiae, UniProt Q04002 394-1493)
T1 construct: also called nearly full-length Scc2 fused to GST; not shown: GST, N-terminal, kept
T1 sequence (looked up): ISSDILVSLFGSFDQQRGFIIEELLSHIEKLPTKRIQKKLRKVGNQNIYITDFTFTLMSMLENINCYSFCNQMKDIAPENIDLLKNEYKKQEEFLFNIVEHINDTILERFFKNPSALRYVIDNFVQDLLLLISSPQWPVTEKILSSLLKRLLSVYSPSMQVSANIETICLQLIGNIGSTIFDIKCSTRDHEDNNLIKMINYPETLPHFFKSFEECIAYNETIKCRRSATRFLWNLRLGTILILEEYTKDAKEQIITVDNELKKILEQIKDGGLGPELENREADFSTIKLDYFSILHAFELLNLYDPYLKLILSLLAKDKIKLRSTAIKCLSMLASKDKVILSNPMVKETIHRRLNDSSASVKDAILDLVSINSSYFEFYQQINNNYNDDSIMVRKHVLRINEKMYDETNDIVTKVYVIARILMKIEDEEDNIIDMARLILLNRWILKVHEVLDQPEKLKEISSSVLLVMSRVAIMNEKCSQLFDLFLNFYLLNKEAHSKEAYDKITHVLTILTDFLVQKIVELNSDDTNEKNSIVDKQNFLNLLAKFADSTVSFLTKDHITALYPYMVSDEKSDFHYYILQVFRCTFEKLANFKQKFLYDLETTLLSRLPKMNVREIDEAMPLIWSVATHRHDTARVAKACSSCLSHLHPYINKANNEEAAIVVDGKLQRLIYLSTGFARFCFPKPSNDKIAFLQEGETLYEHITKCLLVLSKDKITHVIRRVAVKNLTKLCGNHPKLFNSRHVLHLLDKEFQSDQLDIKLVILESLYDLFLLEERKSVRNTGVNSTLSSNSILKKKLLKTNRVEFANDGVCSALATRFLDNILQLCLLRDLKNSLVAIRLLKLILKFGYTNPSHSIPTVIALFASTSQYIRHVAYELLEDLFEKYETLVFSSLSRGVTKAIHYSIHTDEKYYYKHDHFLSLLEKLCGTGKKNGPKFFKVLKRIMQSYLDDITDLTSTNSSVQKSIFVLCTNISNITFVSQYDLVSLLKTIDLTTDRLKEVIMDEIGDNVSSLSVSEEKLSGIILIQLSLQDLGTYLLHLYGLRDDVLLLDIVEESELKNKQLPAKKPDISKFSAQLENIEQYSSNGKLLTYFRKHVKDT

B1: N-terminally His-tagged yeast Pol30 (PCNA) (natural protein, S. cerevisiae, UniProt P15873 1-258, looked up)
chain: MLEAKFEEASLFKRIIDGFKDCVQLVNFQCKEDGIIAQAVDDSRVLLVSLEIGVEAFQEYRCDHPVTLGMDLTSLSKILRCGNNTDTLTLIADNTPDSIILLFEDTKKDRIAEYSLKLMDIDADFLKIEELQYDSTLSLPSSEFSKIVRDLSQLSDSINIMITKETIKFVADGDIGSGSVIIKPFVDMEHPETSIKLEMDQPVDLTFGAKYLLDIIKGSSLSDRVGIRLSSEAPALFQFDLKSGFLQFFLAPKFNDEE
notes: Pol30 (PCNA), S. cerevisiae; no measurement of the oligomer here; also called HisPol30; yeast PCNA; not shown: His, N-terminal, kept

How the values were obtained:
Settings in all cases: both partners purified
[1] = target: B1; test: pull-down; GST–Scc2 fusions on glutathione Sepharose 4B beads, purified His-tagged yeast Pol30 (2.5 μg) in 0.7 ml binding buffer (1× PBS, 150 mM NaCl, 1% Triton X-100), overnight at 4 °C; western blot with anti-Pol30
[2] = target: T2, N-terminally His-tagged chicken PCNA (chicken, UniProt Q9DEA3 1-262); test: pull-down; GST–NIPBL fusions (chicken) on glutathione Sepharose 4B beads, recombinant N-terminally His-tagged chicken PCNA; blots with anti-PCNA and anti-GST
T2 construct: PCNA, chicken; also called HisPCNA; recombinant chicken PCNA; not shown: His, N-terminal, kept
T2 sequence (Q9DEA3 whole entry, the tested form may be a part): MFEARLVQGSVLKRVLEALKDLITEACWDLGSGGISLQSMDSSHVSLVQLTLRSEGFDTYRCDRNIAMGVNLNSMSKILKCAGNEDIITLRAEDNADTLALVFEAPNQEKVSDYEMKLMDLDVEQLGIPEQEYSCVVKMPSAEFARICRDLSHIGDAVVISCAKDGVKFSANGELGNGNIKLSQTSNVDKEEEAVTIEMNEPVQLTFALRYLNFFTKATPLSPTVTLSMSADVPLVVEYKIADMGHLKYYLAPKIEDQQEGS

[3] = target: T1, GST–Scc2^C1100 (Scc2 amino acids …); test: pull-down; GST–Scc2 fusions on glutathione Sepharose 4B beads, purified His-tagged yeast Pol30 (2.5 μg) in 0.7 ml binding buffer (1× PBS, 150 mM NaCl, 1% Triton X-100), overnight at 4 °C; western blot with anti-Pol30

Binder | binding result [2] | other results
YSSNGKLLTYFRKHVKDT (domain or fragment, S. cerevisiae, UniProt Q04002 1476-1493, looked up, also called PIP of Scc2 fused to GST; last 18 amino acids of Scc2; not shown: GST, N-terminal, kept) [GST–Scc2PIP (Scc2 residues 1476–1493 fused to GST)] |  | binding result [1]: binds
GST–NIPBL^(C202 WT) (chicken NIPBL residues 2582–2783 fused to GST) (domain or fragment, UniProt F1NJ66 2582-2783, looked up, also called NIPBL C-terminal fragment (C202); not shown: GST, N-terminal, kept) ANSKITEEVKRSIVKQYLDFKLLMEHLDPDEEEEDGEVSASTNARNKAITSLLGGGSPKNNAAETEDDESDGEDRGGGTSGSLRRSKRNSDSTELASQMNESVDVMDVIAICCPKYKDRPQIARVVQKTSNGFSVQWMAGSYSGSWTEAKRRDGRKLVPWVDTIKESDIIYKKIALTSANKLTNKVVQTLRSLYAAKDGTSS | binds | 
GST–NIPBL^(C202 pip1) (chicken NIPBL residues 2582–2783 with PIP1 mutated, fused to GST) (domain or fragment, UniProt F1NJ66 2582-2783, looked up, also called NIPBL^Q2597A,L2599A,F2601A; not shown: GST, N-terminal, kept) ANSKITEEVKRSIVKAYADAKLLMEHLDPDEEEEDGEVSASTNARNKAITSLLGGGSPKNNAAETEDDESDGEDRGGGTSGSLRRSKRNSDSTELASQMNESVDVMDVIAICCPKYKDRPQIARVVQKTSNGFSVQWMAGSYSGSWTEAKRRDGRKLVPWVDTIKESDIIYKKIALTSANKLTNKVVQTLRSLYAAKDGTSS | binds | 
TNKVVQTLRSLYAAKDGTSS (domain or fragment, UniProt F1NJ66 2764-2783, looked up, not shown: GST, N-terminal, kept) [GST–NIPBL-PIP2 (chicken NIPBL amino acids 2764–2783 fused to GST)] | binds | 
B1 |  | binding result [3]: binds
TNKVVATARSLAAAKDGTSS (domain or fragment, UniProt F1NJ66 2764-2783, looked up, not shown: GST, N-terminal, kept) [GST–NIPBL-pip2 (chicken NIPBL amino acids 2764–2783, Q2769A,L2771A,Y2775A, fused to GST)] | binds | 
